Data reported in paper PMC8286830 (Biochemical Journal, 2021).
Like-named read-outs stand apart in the source and are kept apart here.

B2: C-terminal domain of TgCEN1 (C-TgCEN1, 95–169 aa) (domain or fragment)
chain: not shown

Tests used:
dynamic light scattering [1] = molecular target: the molecule itself; assay: dynamic light scattering
dynamic light scattering [2] = molecular target: the molecule itself; assay: dynamic light scattering; remark: listed apart in the source
[3] = molecular target: T1, truncated variant of TgCEN1 lacking the first 21 residues (Δ21TgCEN1, 22–169) (Toxoplasma gondii, UniProt A0A125YHX7 22-169); assay: ITC
T1 sequence (looked up): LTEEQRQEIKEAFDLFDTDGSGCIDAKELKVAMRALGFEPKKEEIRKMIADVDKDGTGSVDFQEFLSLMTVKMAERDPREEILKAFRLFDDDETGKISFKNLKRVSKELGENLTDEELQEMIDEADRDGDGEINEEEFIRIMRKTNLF

[4] = molecular target: B2; assay: ITC
[5] = molecular target: T1, truncated variant of TgCEN1 lacking the …; assay: ITC; remark: listed apart in the source
[6] = molecular target: T2, N-terminal domain of TgCEN1 lacking the first 21 residues (Δ21N-TgCEN1, 22–94 aa) (Toxoplasma gondii, UniProt A0A125YHX7 22-94); assay: ITC
T2 sequence (looked up): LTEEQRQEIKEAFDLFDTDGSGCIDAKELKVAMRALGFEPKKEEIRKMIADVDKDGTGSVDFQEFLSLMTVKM

[7] = molecular target: B2; assay: ITC; remark: listed apart in the source

B1: N-terminal domain of TgCEN1 (N-TgCEN1, 1–94 aa) (domain or fragment, Toxoplasma gondii, UniProt A0A125YHX7 1-94, looked up)
chain: MHSRKGASSLPRGRGAGKKTELTEEQRQEIKEAFDLFDTDGSGCIDAKELKVAMRALGFEPKKEEIRKMIADVDKDGTGSVDFQEFLSLMTVKM
binding result (dynamic light scattering [1]): binds

B2
binding result (dynamic light scattering [2]): binds

B3: P17-XPC peptide (17-residue peptide of the human xeroderma pigmentosum group C protein, N847-R863) (peptide)
peptide: NWKLLAKGLLIRERLKR
Kd [3]: 59.1 nM | dH [3]: -31.5 kcal/mol | stoichiometry N [3]: 0.9 | Kd [4]: 50.1 nM | dH [4]: -28.4 kcal/mol | stoichiometry N [4]: 0.8 | dH of site 1 (high-affinity site, two-site model) [5]: -23.8 kcal/mol | dH of site 2 (low-affinity site, two-site model) [5]: -12.1 kcal/mol | Kd [6]: 396 nM | dH [6]: -17.7 kcal/mol | stoichiometry N [6]: 0.7 | Kd [7]: 6.7 nM | dH [7]: -22.9 kcal/mol | stoichiometry N [7]: 0.8
